From article PMC5706988

Molecular target: zonula occludens-1 (ZO-1) (UniProt Q07157)
Test: anti-ZO-1 co-IP, Cx43 blot
Conditions: reference: wild type; sites S373

- binding against the reference: stronger
Substance: connexin43 (Cx43) (from UniProt P08050) S373A
